41 sequences from the nanobody polyreactivity screen of Harvey et al. (2022) can be followed below.

The data set can be described thus: yeast display, Sf9 membrane polyspecificity reagent, FACS + sequencing; frameworks hold sequencing errors. The method, boiled down:
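Galactose induction of a Saccharomyces cerevisiae BJ5465 synthetic nanobody display library ran 36–48 hours. The cells were then stained for 1 hour at 4 °C with 10% biotinylated, detergent-solubilized Sf9 membrane reagent, pulled down on streptavidin microbeads and FACS-sorted into low and high (top ~1%) gates on expression and reagent-binding fluorescence. Labels for polyreactivity follow the gate of origin.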
In the case of “QVQLVESVGGLVQAGGSLRLSCAASGSTFGHYAMGWYRQAPGKERELVSAISTSGGRTYYADSVKGRFTISRDNAKNTVYLQMNSLKPEDTAVYYCATRRYGVDKFDYWGQGTQVTVSS”, the “polyreactivity (PSR sort gate)” value is “high polyreactivity”.
For “QVQLVESVGGLVQAGGSLRLSCAASGSTFLVYAMGWYRQAPGKERELVAAITQIDGSTYYADSVKGRFTISRDNAKNTVYLQMNSLKPEDTAVYYCAARYFWTYEYDYWGQGTQVTVSS”, the “polyreactivity (PSR sort gate)” value is reported as “low polyreactivity”.
On to “QVQLVESVGGLVQAGGSLRLSCAASGSTFVDYAMGWYRQAPGKERELVAAINSDGGGTYYADSVKGRFTISRDNAKNTVYLQMNSLKPEDTAVYYCNVEYVDYYAQRYGYDYWGQGTQVTLSS”, for which the “polyreactivity (PSR sort gate)” value is given as “low polyreactivity”.
For “QVQLVESVGGLVQAGGSLRLSCAASGSTFWTNAMGLYRQAPGKERELVATISKTTGRTYYADSVKGRFTISRDNAKNTVYLQMNSLKPEDTAVYYCAAEPYSWDTWVDYDYWGQGTQVTVSS”, the “polyreactivity (PSR sort gate)” value is “low polyreactivity”.
Turning to “QVQLVESVGGLVQAGGSLRLSCAASGSTFYENTMGWYRQAPGKERELVAAISRSGVSTYYADSVKGRFTISRDNAKNTVYLQMNSLKPQDTAVYYCAAIVYRRYDYWGQGTQVTVSS”, the “polyreactivity (PSR sort gate)” value is reported as “high polyreactivity”.
Turning to “QVQLVESVGGLVQAGGSLRLSCAASGSTFYTYDMGWYRQAPGKERELVAAISRRDGITYYADSVKGRFTISRDNAKNTVYLQMNILKPEYTAVYYCAAEDAYLYYDFDYWGQGTQVTVSS”, the “polyreactivity (PSR sort gate)” value was “low polyreactivity”.
As for “QVQLVESVGGLVQAGGSLRLSCAASGSTISLYKGWYRQAPGNETELVAAITYSGGRTYYADSVKGRFTISRDNAKNTVYLQMNSLKPEDTAVYYCATVFNDLTVYEYWSRFDYWGQGTQVTVSS”, the “polyreactivity (PSR sort gate)” value is “low polyreactivity”.
The value for “QVQLVESVGGLVQAGGSLRLSCAASGTIFGWYAMGWYRQAPGKEREMVATIDASGRSTFYADTVKGRFTISRDNAKNTVYLQMNSLKPEDTAVYYFNSRYPRQYWGGYDYWGQGTQVTVSS” was “low polyreactivity”.
For “QVQLVESVGGLVQAGGSLRLSCAASGYIFATNAMGWYRQAPGKERELVAAITRSGGRTYYADSVKGRFTISRDNAKNTVYLQMNSLKPEDTAVYYCAAARPTNIYYYWGQGTQVTVSS”, the “polyreactivity (PSR sort gate)” value is “high polyreactivity”.
Turning to “QVQLVESVGGLVQAGGSLRLSCAAYGRIFAWYAMGWYIQAPGKERELVAVITSSDGSTHYADSVKGRFTISRDNAKNTVYLQMNSLKPEDTAVYYCNADSQRPRRSSTYWGQGTQVTVSS”, the “polyreactivity (PSR sort gate)” value was “low polyreactivity”.
As to “QVQLVESVGGLVQAGGSLRLSCASSGSTFTYYAKVWYRQAPGKERELVAAISCTGTSTYYADSVKGRFTISRDNAKNTVYFQMNSLKPEDTAVYYSASTYRGYSGYKRRDYWGQGTQVTVSS”, the “polyreactivity (PSR sort gate)” value was “high polyreactivity”.
“QVQLVESVGGLVQAGGSLRLSLAASGFTFWYYAMGWYRQAPGKERELVAVINTSGGSTYADSVKGRFTISRDNAKNTVYLQMNSLKPEDTAVYYCAAEGISTYPYDYCGQGTQVTVSS”: the “polyreactivity (PSR sort gate)” value is listed as “low polyreactivity”.
For “QVQLVESVGGLVQAGGSLRLSSAASGIIFRRYPMVWYREPPGKDRELVAAISSGGRTYYADSGKGRFTISRDNAKNSVYLHMNSLKQEDTAVYYCAARWWYKNKYWGQGTQVTVSS” the value was “high polyreactivity”; for “QVQLVESVGGLVQAGGSLRLSSAASGYTSNIYAMGWYRQAPGTERELVASIRGRSGSTYYADSVKGRFTISRDNAKNSVYLQMNSLKPEDTAVYYCAGSRPWDFYRFGFDYWGQGTQVTVSS”, “high polyreactivity”.
For “QVQLVESVGGLVQAGGSLSISCAASGRIFPRNAMGWYRPAPGKERELVAAISSGGGGTYYADSVKGRFTISRDNAKNTVYLQMNSQKPEDTAVYYCAAYVVRWWCDGDYWGQGTQVTVSS”, the “polyreactivity (PSR sort gate)” value is reported as “high polyreactivity”.
On to “QVQLVESVGGLVQAGGSLSLRCAASGLISRRNAMGWYRQAPGKERELVAAISTGSSTNYADSVKGRFTISRDNAKNTVYLQMNSLKTEDTAFYYCATDYLAGAPCEGHVEREYDYWGQGTQVTVSS”, for which the “polyreactivity (PSR sort gate)” value is “low polyreactivity”.
For the sequence “QVQLVESVGGLVQAGGTLRLSCAASGRIFCIYAMGWYRPAPGKVRSLVATITGSGGSTYYADSVKGRFTISRDNAKNTVYLQLHSLKPEDTAVYYCAARYPVSGGYDYWGQGNQVTVSS”, the “polyreactivity (PSR sort gate)” value is “low polyreactivity”.
For the sequence “QVQLVESVGGLVQAVGSLRLSCAASGFTFSDYAMGWYRHAPGKERELVAAISTRCSSTYYADSVKGRFTISRDIAKNNVYLQMNSLKPEDTAVYYCNAVGSYSGYYYWGQGTQVTVSS”, the “polyreactivity (PSR sort gate)” value is recorded as “high polyreactivity”.
As for “QVQLVESVGGLVQVGGSLRLSCAASGSILTDYGMGWYRQAPGKERELVAAITGSGGSTYYADSVKGRFTISRDNAKNTVYLQMNSLKPEDTAVYYCAKRHVGSRYLFDYWGQGTQVTVSS”, the “polyreactivity (PSR sort gate)” value was “low polyreactivity”.
Take “QVQLVESVRGLVQAGGSLRLSCAASGRIIYLNGMGSYRQAPGKERELVAAISSSDDSTYYAVSVKGRFTISRDNATNTVYLQLNSLKPEDTAVYYCAAGYHQVQNYGDAYYWSELYSWGQGTQVTVSS”: the “polyreactivity (PSR sort gate)” value is “low polyreactivity”.
Turning to “QVQLVESVVGLVQAGGSLPISCAASGSTFSANDMVWYSQPHGTERELVAAIDTGGTTYYADSVKGRFTISRDNAKNTVYLQMNSLKPEYTAVYYCNATIWYRDYGYWVQGTQVTVSS”, the “polyreactivity (PSR sort gate)” value was “low polyreactivity”.
The value for “QVQLVESVVGLVQAGGSLRLSCAASGRIFAYYAMGWYRQAPGKERELVAAISSSGGGTYYADSVKGRFTISRDNAKNTVYLQMNSLKPEDTAVYYCAKRVRRKYSVSHPYDYWGQGTQVTVSS” was “high polyreactivity”; that for “QVQLVESVVGLVQAGVSLRLSCSASGFIFGRYAMGWYRQAPGKERELVADISWNGGSTYYADSVKGRFTISRDNAKNTVYLQMNSLKPEDTAVYYCAADYYWASFKYPYLRPYDYWGLGTQVTVSS” was “high polyreactivity”; that for “QVQLVESVVGLVQARGTLRLSGATTGNTFYKNTMRWYRQPHGKERELVAAISQRGTRTYYADSVQGRFTISRDYAKNTVYLQMNSLKPEDTAVYYCPTVMSQVGFDYWGQGTQVTVSS” was “high polyreactivity”.
In the case of “QVQLVESWGALVQAGGSLRLSCAPSGSSKLMLWEGIDRRLGNKGSWLPLIVLVVLRNYADSVKGRFTISRDNAKNTLYLQMNSLKPDDTAVYYCAATPIGSGGWGDYWGQGTQVTLSS”, the “polyreactivity (PSR sort gate)” value is recorded as “low polyreactivity”.
In the case of “QVQLVESWGGIVQAGGILRLSFAAYGRIFASNAMGWYRKAPGKERELVAGISRNGGSTFYEDSVKGRYTISRDTAKNTVYLQMISLKPDDTAVYYCARYYTHSGGYRDRIYYYWGQGTQVTVSS”, the “polyreactivity (PSR sort gate)” value is “low polyreactivity”.
For “QVQLVESWGGLVQAGGSLRISCAASGRTFPDYAMGWYRQAPGKERELVAAISSGGGTYYADSVKGRFTISRDNAKNTVFLQMNSLKPEDTAVYYCAATGVPGWVGFDYCGQGTQVTVSS”, the “polyreactivity (PSR sort gate)” value is recorded as “low polyreactivity”.
For “QVQLVESWGGLVQAGGSLRLICAASGSTFRDYFLGWYRRAPGKERELVATISGSGGSTYYADSVKGRFTISRDNAKNTVYLQMNSLKPEDTAFYYCAAVSVSSWYDYWGQGTQVTVSS”, the “polyreactivity (PSR sort gate)” value is given as “low polyreactivity”.
For “QVQLVESWGGLVQAGGSLRLRFAASVRTFVSNAMGWYRQAPGKERELVARITGSGGNTYYADSVKGRFTISRDNEKNTVYLQMNSLKPEDTAVYYCNSDVFRKFGSPSGYKSHRYDYWGQGTQVTVSS” the value was “low polyreactivity”.
The value for “QVQLVESWGGLVQAGGSLRLSCAASGFIFQTNVMGWYRQAPGKERELVAAISSGDSTYYADSVKGRFTISRDNAKNTVYLQMNSLKPEDTAVYYCAADVLGTTTTVGGFNYWGQGTQVTVSS” was “low polyreactivity”; that for “QVQLVESWGGLVQAGGSLRLSCAASGFTFRGYARGWYRQAPGKERELVAAISRSGGSTNFADSVKGRFTISRDNAKNTVYLQMNSLKPEDTAVYYCAAGWNPYDYWGQGTQVTVSS” was “high polyreactivity”.
For “QVQLVESWGGLVQAGGSLRLSCAASGFTYSQYVMGWYIQAPGKERELVASITGNGGSTRYADSVKGRFTISRDNAKNTVYLHMNSLKPEDTAVYYCAARYVYFRWGSFDYWGQGTQVTVSS” the value was “high polyreactivity”.
In the case of “QVQLVESWGGLVQAGGSLRLSCAASGIIFRTYAMGWYRQAPWKERELVAAINSDGSTYYADSVKGRFTISRDNAKNTVYLQMNSLKPEDTAVYYCAATYGRSRKDGYWGQGTQVTVSS”, the “polyreactivity (PSR sort gate)” value is on record as “high polyreactivity”.
“QVQLVESWGGLVQAGGSLRLSCAASGITFDGNAMGWYRQAPGKERELVAGISGSGGGTYYADSVKGRFTISRDNAKNTVYLHMNSLKPEDTAVYYCAADTSTSHAYDYWGQGTQVTVSS”: the “polyreactivity (PSR sort gate)” value is on record as “low polyreactivity”.
Consider “QVQLVESWGGLVQAGGSLRLSCAASGITFYVYAMGWYRQAPGKERELVAAISSGSSTYYADSVKGRFTISRDNAKKTVYLQMNSLKPEDTAVYYCAARYRKYLSEYWGQGTQVTVSS”, for which the “polyreactivity (PSR sort gate)” value was “high polyreactivity”.
For “QVQLVESWGGLVQAGGSLRLSCAASGRIFALYAMGWYRKAPGKERELVASINSRVGSTNYADSVKGRFTISRDNAKNTVYLQMNSLKPEDTAVYYCNARFVYAYQRYYWGQGTQVTVSS”, the “polyreactivity (PSR sort gate)” value is reported as “high polyreactivity”.
For “QVQLVESWGGLVQAGGSLRLSCAASGRIFFVNAMGWYRQAPGKERELVAAITSGGSTSYADSVKGRFTISRDNAKNTVFLQLNSLKAEDTAVYYCAAVFYRRFDYWGQGTQVTVSS” the value was “low polyreactivity”; for “QVQLVESWGGLVQAGGSLRLSCAASGSIFFPNAMGWYRQAPWKERELVAAIRGGTNTYYADSVKGRFTISRDNAKNTVYLQMNSLKPEDTAVYYCAARRSSHWFTYDYWGQGTQVTVSS”, “high polyreactivity”.
For “QVQLVESWGGLVQAGGSLRLSCAASGSIFSDYAMGWYRQARGKERELVAAITQSGGSTYADSVKGRFTISRDNAKNTVYLQMNSLKPDDTAVYYCAADEVPGFGYPPYPWFDYWGQGTQVTVSS”, the “polyreactivity (PSR sort gate)” value is listed as “low polyreactivity”.
With “QVQLVESWGGLVQAGGSLRLSCAASGSNFELYAMGWYRQAPGKERELVASITWSASNTHYADSVKGRFTISRDNAKNTVYLQINSLKTEDTAVYYCAKDVLYGLFDGDSWGQGTQVTVSS”, the “polyreactivity (PSR sort gate)” value is reported as “low polyreactivity”.
For “QVQLVESWGGLVQAGGSLRLSCAASGSTFYAYAMGWYRQAPGKERELVAAIDSGGSTYYADSVKGRFTISRDNAKNTVYLQMNSLIPEDTAVYYCAVRHRYTRAYWGRDYWGQGTQVTVSS” the value was “low polyreactivity”.
